Assay results published in patent publication US20220195052A1.

Biological target: human αvβ1 integrin on cells (human) (UniProt P06756)
Experiment: inhibition of adhesion of BCECF-labelled αvβ1-transfected cells to plate-coated LAP

human αvβ1 integrin on cells (human), sequence (P06756 31-1048 limits assumed, chain 1 of 2): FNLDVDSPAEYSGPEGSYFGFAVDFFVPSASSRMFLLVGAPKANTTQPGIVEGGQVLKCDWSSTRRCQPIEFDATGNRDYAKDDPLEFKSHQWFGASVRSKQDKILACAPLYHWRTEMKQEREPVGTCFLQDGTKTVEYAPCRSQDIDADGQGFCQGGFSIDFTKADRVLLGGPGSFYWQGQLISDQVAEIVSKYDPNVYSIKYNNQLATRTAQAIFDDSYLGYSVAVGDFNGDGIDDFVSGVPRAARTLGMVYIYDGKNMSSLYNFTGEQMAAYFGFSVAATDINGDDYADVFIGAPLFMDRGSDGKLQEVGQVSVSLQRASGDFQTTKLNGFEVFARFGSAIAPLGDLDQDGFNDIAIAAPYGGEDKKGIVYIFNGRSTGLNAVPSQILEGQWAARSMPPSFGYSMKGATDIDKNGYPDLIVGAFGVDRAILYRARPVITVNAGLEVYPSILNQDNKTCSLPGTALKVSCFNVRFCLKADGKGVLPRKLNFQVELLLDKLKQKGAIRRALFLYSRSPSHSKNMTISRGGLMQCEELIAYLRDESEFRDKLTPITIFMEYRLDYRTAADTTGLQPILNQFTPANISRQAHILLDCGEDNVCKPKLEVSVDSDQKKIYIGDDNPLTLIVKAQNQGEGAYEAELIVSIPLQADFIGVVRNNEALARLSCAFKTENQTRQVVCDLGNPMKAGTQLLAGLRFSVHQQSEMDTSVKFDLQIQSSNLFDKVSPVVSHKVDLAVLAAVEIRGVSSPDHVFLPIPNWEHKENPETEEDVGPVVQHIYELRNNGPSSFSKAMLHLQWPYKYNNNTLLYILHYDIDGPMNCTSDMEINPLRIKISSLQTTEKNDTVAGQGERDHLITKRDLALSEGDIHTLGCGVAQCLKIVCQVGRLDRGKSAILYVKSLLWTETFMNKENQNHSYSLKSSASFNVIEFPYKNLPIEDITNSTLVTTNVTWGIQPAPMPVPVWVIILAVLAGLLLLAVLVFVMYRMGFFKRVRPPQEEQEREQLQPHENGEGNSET
human αvβ1 integrin on cells (human), sequence (chain, as listed by the source limits assumed, chain 2 of 2): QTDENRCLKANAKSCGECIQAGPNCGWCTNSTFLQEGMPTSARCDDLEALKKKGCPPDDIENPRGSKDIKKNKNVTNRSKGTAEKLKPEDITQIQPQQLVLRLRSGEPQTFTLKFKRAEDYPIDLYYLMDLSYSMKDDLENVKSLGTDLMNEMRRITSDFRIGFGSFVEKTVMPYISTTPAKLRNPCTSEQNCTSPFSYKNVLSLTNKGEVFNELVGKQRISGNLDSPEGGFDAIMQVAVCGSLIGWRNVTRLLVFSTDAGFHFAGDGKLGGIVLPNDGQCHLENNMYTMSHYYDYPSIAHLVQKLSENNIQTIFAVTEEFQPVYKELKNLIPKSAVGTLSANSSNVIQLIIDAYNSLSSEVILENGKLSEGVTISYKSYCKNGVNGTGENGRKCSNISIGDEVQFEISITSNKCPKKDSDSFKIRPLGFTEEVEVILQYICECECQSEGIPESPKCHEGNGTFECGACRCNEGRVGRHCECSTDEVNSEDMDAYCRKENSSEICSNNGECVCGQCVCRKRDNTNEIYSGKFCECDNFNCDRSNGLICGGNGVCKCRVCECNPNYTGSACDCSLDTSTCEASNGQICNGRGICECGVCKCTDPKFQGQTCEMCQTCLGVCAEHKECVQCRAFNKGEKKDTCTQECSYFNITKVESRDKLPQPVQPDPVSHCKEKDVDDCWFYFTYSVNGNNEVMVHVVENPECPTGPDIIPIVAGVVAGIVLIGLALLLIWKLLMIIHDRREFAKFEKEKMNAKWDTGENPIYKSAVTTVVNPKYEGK

L230 (pan-αv commercial antibody)
IC50: 1 nM
